Measured values reported in the nanobody polyreactivity screen of Harvey et al. (2022).

Test: yeast display, Sf9 membrane polyspecificity reagent, FACS + sequencing; frameworks hold sequencing errors
How it was run: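 Galactose-induced (36–48 hours) yeast carrying a synthetic nanobody display library were exposed to 10% biotinylated, detergent-solubilized Sf9 membrane reagent at 4 °C for 1 hour. FACS followed streptavidin microbead enrichment, using low and high (top ~1%) gates for expression (anti-HA) and reagent binding (streptavidin). Colony PCR, MiSeq 2 × 250 sequencing and CDR-length filtering followed. Labels for polyreactivity reflect the gate of origin.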

Sequence | polyreactivity (PSR sort gate)
QVQLVESGGGLVQAGASLRLSSAASGSTFKYYTMGWYRQAPGKERELVAAISFSGARTYYADSVKGRFTISRDNAKNTVYLQMNCLIPEDTAVYYCAKASSYSRRYEYWGQGTQVTVSS | high polyreactivity
QVQLVESGGGLVQAGASLSLSCAASGFTFEDYAMGWYRQAPGKERELVAAISSRGTSTYYADSVKGRFTISRDNAKNTVYLQMNSLKREDTAVYYCNIRGWYPYGYWGQGTQVTVSS | high polyreactivity
QVQLVESGGGLVQAGASRRLSCAASGSNFASYAMGWYRQAPGKERELVAAITRRGGSTDYADSVKGRFTISRDNEKYTVDLHMNLLKPEDTAVYYCPTYSYPERTGGQRTHYYWGQGTQVTVSS | high polyreactivity
QVQLVESGGGLVQAGCILRLSCAASGRTFHLNAMGWYIQAPGKEREMVAAITNSGGRTSYADSVKVRFTISRDNAKNTVYIQMNSLKPEDTAVYYFNVEVTYSSGKYYYWGQGTQVTVSS | low polyreactivity
QVQLVESGGGLVQAGCRLRLSCAASGSIIYRKAMGWYRQAPGKERQLVAAISARGGRTNYAVSVKGRFTISRDNAKNTVYLQLYSLNPEDTAVYYCNTADSWYHRSQAYDYWGQGTQVTVSS | high polyreactivity
QVQLVESGGGLVQAGCSHSLSCAASGLTFDVYTMGWYRQAPGKERELVATISQTYYADSVKGRFTISRDNAKNTVYLQMNSLKPEDTAVYYCAANGFKAQYRDIVYDYGYWGEGTQVTVSS | low polyreactivity
QVQLVESGGGLVQAGCSLRLICAASGLTFSRYTMGWYRQAPGKERELVAAISLSGGRTYYADSVKGRFTISRDNAKNTVYLQMNSLKPEDTAVYYCNARGTYHGQYYWGEGTQVTVSS | high polyreactivity
QVQLVESGGGLVQAGCSLRLICAASGSISYHNAKGWYRQAPAKEREWVAANSGDGDSTYYADSVKVRFTISRDNAKHTVYLQMNTLKPEDSAVYYSAAEPTVYFSDFVLFPSDFWGQGTQVTVSS | low polyreactivity
QVQLVESGGGLVQAGCSLRLSCAASGFIFRLYTMGWYRQAPGKERELVARITRGDSTIYADSVKGRFTISRDNAKNTVYLQMNSLKPEDTAVYYCAKLHRGLPYYSFYRGYYYWGQGTQVTVSS | low polyreactivity
QVQLVESGGGLVQAGCSLRLSCAASGFIFWENGLGWYRQAPGKERELVAAISSGGGRTYYADSVKGRFTISRDNAKHTVYLQMNSLKPEDTAVYYCNRARYYREFDFWGQGTQVTVSS | high polyreactivity
QVQLVESGGGLVQAGCSLRLSCAASGFIFWLYAMGWYRQAPGKERELVASINWSGGDTYYADSVKGRFTISRDNAKNTVYLQMNSLKPEDTAVYYCNAIVLDSKSSFDYWGQGTQVTVSS | low polyreactivity
QVQLVESGGGLVQAGCSLRLSCAASGFTFGSYAMGWYRQAPWKEREFVAAIRRSGSSTYYADSVKGRFTISRDNAKNTVYLQMNSLKPEDTAVYFCAADVYRRLRRYRYYYLGQGTQVTVSS | low polyreactivity
QVQLVESGGGLVQAGCSLRLSCAASGITFAWYAMGWYRQAPGKERELVAAIDDRGGSTYYADSVKGRFTISRDNAKNTVYLQMNSLKPEDTAVYYCNADTPSYEPYRLDYWGQGTQVTVSS | low polyreactivity
QVQLVESGGGLVQAGCSLRLSCAASGRIFPRNVMGWYRQAPGKERELVAAISSRGTRTYYADSVKGRFTISRDNAKNTVYLQMNSLKPEDTAVYYCAADGPYEGYDYWGLGTQVTVSS | high polyreactivity
QVQLVESGGGLVQAGCSLRLSCAASGRIFQTNVMGWYRQAPGKDRELVAAISYRGGTTYYADSVKGRFTISRDNAKNTVYLQMNSLKPEDPAVYYCAALHYRIRRTGMDYWGQGTQVTVSS | low polyreactivity
QVQLVESGGGLVQAGCSLRLSCAASGRIFTGNAMGWYRQAPGKERELVAAISRSGGRTYYADSVKGRFTISRDNAKNTVYLQMNSLKPEDTAVYYCAAAGYYHTYWGTMDYWGQGTQVTVSS | high polyreactivity
QVQLVESGGGLVQAGCSLRLSCAASGRIFVAITMGRYRQAPGKERELVAAITRGTNTYYADSVKGRFTISRDNAKNTVDLQMNSLKPEDSAVYYCAARLPYNAIGYYYWGHGTQVTVSS | low polyreactivity
QVQLVESGGGLVQAGCSLRLSCAASGRIFYSNVMGWYRQAPGKERELVAAISGRTGGTYYADSVKGRFTISRDTAKNTVYLQMNSLKPEDTAVYYCAARVIYYYGSGPYDYWGQGTQVTVSS | low polyreactivity
QVQLVESGGGLVQAGCSLRLSCAASGRTFAYYAMGWYRQAPGKERELVAAISSGGGSTYYADSVKGRFTISRDNAKNTVYLQMNSLKPEDTAVYYCAKERSYSRSGGTYYYWGQGTQVTVSS | high polyreactivity
QVQLVESGGGLVQAGCSLRLSCAASGRTFGGNAMGWYRQAPGKERELVAAISKSGGRTYYADSVKGRFTISRDNAKNTVYLQMNSLKPEDTAVYYCNKVLSVSQAGGFDYWGQGTQVTVSS | high polyreactivity
QVQLVESGGGLVQAGCSLRLSCAASGRTFSTYAMGWYRQAPGKERELVAAITRRGGSTYYADSVKRRFTISRDNAKNTVYLQINSLKPEDTAVYYCETYADRPPRTPDISYVSNFDYWGQGTQVTVSS | low polyreactivity
QVQLVESGGGLVQAGCSLRLSCAASGSIFTINAMGWYREAPGKERELVAAISFGGGSTYYADSVKGRFTISRDNAKITGYLQMNSLKREDTAVYYCAAEDWWGYDYWGQGNQVTVSS | high polyreactivity

Sequence | polyreactivity (PSR sort gate)
QVQLVESGGGLVQAGCSLRLSCAASGSIFYRYAMGWYRQAPGKERELVAAISRSGGRTYYADSVKGRFTISRDNAKNTVYIQMNSLKPEDTAVYNCAAESTVGTDLGGDSWGQGTQVTVSS | high polyreactivity
QVQLVESGGGLVQAGCSLRLSCAASGSIFYYYAMGWYRQAPGKERELVAAIRRSGSTTYADSVKGRFTISRDNAKNTVYLQMNSLKPEETAVYYCNVYGYGTEYDYWGQGTLVTVSS | high polyreactivity
QVQLVESGGGLVQAGCSLRLSCAASGSNFGMYTMGWYRQAPGKESELVAAISGGGGSTYYADSVKGRFTISRDTAKNTVYVQMNSLKPEDSAVYYCAAVLDLSEWYDYWGQGTQVTVSS | low polyreactivity
QVQLVESGGGLVQAGCSLRLSCAASGSTFPYNSMGWYRQAPGKERELVAAITSSGRTNYADSVKGRFTISRDNAKNTVYLQMNSLKPEDTAVYYCAAARWYAHRVDYWGQGTQVTVSS | low polyreactivity
QVQLVESGGGLVQAGCSLRLSCASSGGIFSWYAMGRYRQAPGKEREFVAAISWRGGRTYYADSVKGRFTISRDNAKNTVYLQMNSLKPEDTAVYYCAVANRAGEDDYWGQGSQVTVSS | high polyreactivity
QVQLVESGGGLVQAGCSLRLSCSASGSIFRNNAMGWYRPAHGKERELVAAITSTGTGTYYADSLKGRFTISRDNAKNTVYLQMNSLKPEDTAVYYCSVDDDFEFVYWGQGTQVTVSS | low polyreactivity
QVQLVESGGGLVQAGCSLRLSYAASGLTFRRNPLGWYRQAPGKERELVATITSVGSTNYADSVKGRFTISRDNAKNTVYLQMISLKPEDTAVYYCRTVTYGYWGQGTQVTVSS | high polyreactivity
QVQLVESGGGLVQAGCSLRLTCAASGSIFPYYAMGWYRQAPGKERELVAAISYSGGRTRYADSVKGRFTISRDNAKNTVYLQMNSLKPEHTAVYYCAVVDRHQPYGRQLDYWGQGTQVTVSS | low polyreactivity
QVQLVESGGGLVQAGCSRRLSCSASGSIFRGNSMGWYRPAPGKERELVAAITGSGGNTYYADSVKGRFTISRDNAKNTVYLQMNSLKPEDTAFYYCIADGWNTYIGPRRYRYDYWGQGTQVTVSS | low polyreactivity
QVQLVESGGGLVQAGCTLRLSCAASGSIAYNAMGWYRQAPGKERELVASIRASGGRTYYADSVKGRFTISRDNAKNSVYLQMNSLKPEDTAVYYCAAYHGSKPLHHKGYDYWGQGTQVSVSS | low polyreactivity
QVQLVESGGGLVQAGDSLRLSCAASGSTFTRNAMGWYRQAPGKERDLVASITRGGSTYADSVKGRFTISRDNAKNTVYLQMYSLKPEDTAVYYCAKSVTCWRGLWYTPRNYFWGQGSQVTVSS | high polyreactivity
QVQLVESGGGLVQAGFSLRLSCAASGSIFDYYTMGCYRQAPGKERELVATIRSGDSTNYADSVKGRFTISRDNAKNTVYLQMNSLKPEDTAVYYFAADDGAYPTLYDYWGQGTQVTVSS | low polyreactivity
QVQLVESGGGLVQAGGCLRLSCAASGFTFWWYAMGWYRQAPGKERELVAAISSGGSTNYADSVKGRFTLSRDNAKNTVYLQMNSLQPEDTAVYYCARRLWYSDRYSARWQYDYWGQVTQVTVSS | high polyreactivity
QVQLVESGGGLVQAGGCLRLSCAASGNTFYGYAMGWYRQAPGKERELVASITLSGDSTYYADSVKGRFTISRDNAMNTVYLQMNSLKPEYTAVYYCAGVYTYPLGYYHYTYDYWGQGTQVTVSS | low polyreactivity
QVQLVESGGGLVQAGGCLRLSCAASGRIFYANTMGWYRQAPGIEWELVASMYGAVGTYADSVKGRFTISRDKAKNTVSLQMNSLKPEDTAVYYCNAYLTRPVEEYLWDGYYYWGQGTQVTVSA | low polyreactivity
QVQLVESGGGLVQAGGCLRLSCAASGSIFFGYAMGWYRQAPGKERELVAAINGSVITSYADSVKGRFTISRDNAKNTVYLQMNSLKPEDTAYYCNTGSTWGAVIANYDHWGQGTQVTVSS | low polyreactivity
QVQLVESGGGLVQAGGCLRLSCAASGSTFEDYAMGWYRQATGKERALVAAINSGGSTYYADSVKGRFTFSRHNAKNTVYLQMNSQKPEDTAVYYCAARIYYWTYRYNYWGQGTQVTVSS | high polyreactivity
QVQLVESGGGLVQAGGCLRLSCAASGSTFLRNTMGWYRLAPGKERELVATISAGASNTYYADSVKGRFTISRDNAKNTDYLQKNSLTPEATAVYYCAARLLTWYYGIRYYWGQGTQVTVSS | high polyreactivity
QVQLVESGGGLVQAGGCLRVSCAASGNICVIYAMGGDRKAPGKERELLAAINWNSGRTYYADSVKGRFTISRDNAKNTVYLQMNSLKPEDTAVYYCAARTWGFGYPEFGYWGQGTQVTVSS | high polyreactivity
QVQLVESGGGLVQAGGGLRLSCAASGITFVDYDMGWYRQAPGKERELDAAITTGSSTYYADSVKGRFTISRDNAKNTVYLQMNSLKPEDTAVYYCARDFEYDYYQQWSYGYWGQGTQVTVSS | low polyreactivity
QVQLVESGGGLVQAGGGLRLSCAASGSIFGSYAMGWYRQAPAKERELVAGITYRGSSTYYADSVKGRFTISRDNAKNTVYLQMTSLKPEDSAVYYCAADPVFDEYDYWGQGTQVTVSS | low polyreactivity
